T1: E. coli Trigger Factor (TF), full length (E. coli, UniProt P0A850 1-432)
T1 sequence (looked up): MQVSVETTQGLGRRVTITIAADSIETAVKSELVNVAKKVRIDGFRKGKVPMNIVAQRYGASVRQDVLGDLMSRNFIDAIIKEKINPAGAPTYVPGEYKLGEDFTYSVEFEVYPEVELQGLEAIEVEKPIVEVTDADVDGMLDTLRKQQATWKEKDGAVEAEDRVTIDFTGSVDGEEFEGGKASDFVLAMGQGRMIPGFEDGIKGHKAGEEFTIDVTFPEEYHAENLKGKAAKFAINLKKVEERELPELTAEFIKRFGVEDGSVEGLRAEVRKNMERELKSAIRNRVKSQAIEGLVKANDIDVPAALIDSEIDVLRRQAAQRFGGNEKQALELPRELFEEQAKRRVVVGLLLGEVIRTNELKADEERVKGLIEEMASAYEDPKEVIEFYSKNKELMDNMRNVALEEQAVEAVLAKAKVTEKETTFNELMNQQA


Assays:
[1] = biological target: T1, E. coli Trigger Factor (TF), full length; assay: ITC + NMR titration
[2] = biological target: T1, E. coli Trigger Factor (TF), full length; assay: ITC
[3] = biological target: T1, E. coli Trigger Factor (TF), full length; assay: NMR titration

Binder	Kd [1] [µM]	Kd [2] [µM]	stoichiometry N [3] [TF per PhoA^a-c]
PhoA site b (independent fragment) (domain or fragment) TPEMPVLENRAAQGDITAPGGARRLTGDQTAALRDSLSDKPAKNIILLIGDGMGDS	~200		
PhoA^f-g (PhoA fragment with TF-binding sites f and g) (domain or fragment, E. coli) QIGETVDLDEAVQRALEFAKKEGNTLVIVTADHAHASQIVAPDTKAPGLTQALNTKDGAVMVMSYGNSEEDSQEHTGSQLRIAAYGPHAANVVGLTDQTDLFYTMKAALGLK		~14	

Second part, the binder after the results:

Kd [1] [µM]	Kd [2] [µM]	stoichiometry N [3] [TF per PhoA^a-c]	Binder
	~2	1	PhoA^a-c (PhoA fragment with TF-binding sites a to c) (domain or fragment, E. coli, UniProt P00634 1-150, looked up) MKQSTIALALLPLLFTPVTKARTPEMPVLENRAAQGDITAPGGARRLTGDQTAALRDSLSDKPAKNIILLIGDGMGDSEITAARNYAEGAGGFFKGIDALPLTGQYTHYALNKKTGKPDYVTDSAASATAWSTGVKTYNGALGVDIHEKD
	~4		PhoA^d-e (PhoA fragment with TF-binding sites d and e) (domain or fragment, E. coli) ARADVTLGGGAKTFAETATAGEWQGKTLREQAQARGYQLVSDAASLNSVTEANQQKPLLGLFADGNMPVRWLGPKATYHGNIDKPAVTCTP

Source: article PMC4070327 (Science (New York, N.Y.), 2014)
